Data from article PMC3143072, “DNA binding activities of the Herves transposase from the mosquito Anopheles gambiae”.

Experiments:
Herves transposase [1] = molecular target: T1, Herves transposase (Anopheles gambiae, UniProt Q5QIT5 1-603); assay: EMSA; one complex; EMSA: 16 mM Tris pH 8.0, 150 mM NaCl, 1 mM DTT, 0.25% Triton X, 0.2 ug BSA, 0.4 ug T3 ss oligo, 0.5 ug poly(dI-dC), 4 C; 100 nM DNA, 850 nM transposase; same binding conditions for DNase I; details: protein: recombinant; tags: His tag (pBAD myc/HisA vector); label: 32P as probe
T1 sequence: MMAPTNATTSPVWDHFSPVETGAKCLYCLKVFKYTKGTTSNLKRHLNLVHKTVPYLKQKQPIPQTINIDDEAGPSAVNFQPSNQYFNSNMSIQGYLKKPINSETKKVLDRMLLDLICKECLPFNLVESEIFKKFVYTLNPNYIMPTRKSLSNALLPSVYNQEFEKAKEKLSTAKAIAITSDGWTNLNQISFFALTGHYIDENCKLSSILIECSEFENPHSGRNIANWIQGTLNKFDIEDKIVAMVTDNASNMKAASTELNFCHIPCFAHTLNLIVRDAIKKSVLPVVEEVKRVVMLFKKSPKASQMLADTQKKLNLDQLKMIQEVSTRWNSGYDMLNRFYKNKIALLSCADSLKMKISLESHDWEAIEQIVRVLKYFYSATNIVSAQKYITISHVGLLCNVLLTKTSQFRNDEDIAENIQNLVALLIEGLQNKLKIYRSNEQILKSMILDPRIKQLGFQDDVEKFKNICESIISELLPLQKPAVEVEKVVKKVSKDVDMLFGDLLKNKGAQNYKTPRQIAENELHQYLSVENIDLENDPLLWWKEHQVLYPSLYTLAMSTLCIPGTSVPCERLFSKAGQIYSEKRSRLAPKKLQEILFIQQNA

Herves transposase [2] = molecular target: T1, Herves transposase; assay: EMSA; three complexes; competed by unlabeled bp 1-100; EMSA: 16 mM Tris pH 8.0, 150 mM NaCl, 1 mM DTT, 0.25% Triton X, 0.2 ug BSA, 0.4 ug T3 ss oligo, 0.5 ug poly(dI-dC), 4 C; 100 nM DNA, 850 nM transposase; same binding conditions for DNase I; details: protein: recombinant; tags: His tag (pBAD myc/HisA vector); label: 32P
Herves transposase [3] = molecular target: T1, Herves transposase; assay: EMSA; two complexes; EMSA: 16 mM Tris pH 8.0, 150 mM NaCl, 1 mM DTT, 0.25% Triton X, 0.2 ug BSA, 0.4 ug T3 ss oligo, 0.5 ug poly(dI-dC), 4 C; 100 nM DNA, 850 nM transposase; same binding conditions for DNase I; details: protein: recombinant; tags: His tag (pBAD myc/HisA vector); label: 32P as probe
Herves transposase [4] = molecular target: T1, Herves transposase; assay: competition; vs Herves-L 1-100 probe, partial compared with bp 1-100; 200-fold; EMSA: 16 mM Tris pH 8.0, 150 mM NaCl, 1 mM DTT, 0.25% Triton X, 0.2 ug BSA, 0.4 ug T3 ss oligo, 0.5 ug poly(dI-dC), 4 C; 100 nM DNA, 850 nM transposase; same binding conditions for DNase I; details: protein: recombinant; tags: His tag (pBAD myc/HisA vector); label: 32P as probe
Herves transposase [5] = molecular target: T1, Herves transposase; assay: EMSA; two complexes; competed by self; EMSA: 16 mM Tris pH 8.0, 150 mM NaCl, 1 mM DTT, 0.25% Triton X, 0.2 ug BSA, 0.4 ug T3 ss oligo, 0.5 ug poly(dI-dC), 4 C; 100 nM DNA, 850 nM transposase; same binding conditions for DNase I; details: protein: recombinant; tags: His tag (pBAD myc/HisA vector); label: 32P
Herves transposase [6] = molecular target: T1, Herves transposase; assay: competition; vs Herves-L 1-100 probe; 200-fold; EMSA: 16 mM Tris pH 8.0, 150 mM NaCl, 1 mM DTT, 0.25% Triton X, 0.2 ug BSA, 0.4 ug T3 ss oligo, 0.5 ug poly(dI-dC), 4 C; 100 nM DNA, 850 nM transposase; same binding conditions for DNase I; details: protein: recombinant; tags: His tag (pBAD myc/HisA vector)
Herves transposase [7] = molecular target: T1, Herves transposase; assay: EMSA; EMSA: 16 mM Tris pH 8.0, 150 mM NaCl, 1 mM DTT, 0.25% Triton X, 0.2 ug BSA, 0.4 ug T3 ss oligo, 0.5 ug poly(dI-dC), 4 C; 100 nM DNA, 850 nM transposase; same binding conditions for DNase I; details: protein: recombinant; tags: His tag (pBAD myc/HisA vector); label: 32P as probe

B1: Herves-R bp 61-90 (dsDNA)
DNA 1: TGAACTGAGCGTGAATCGCGATTCAATCGT
DNA 2: ACGATTGAATCGCGATTCACGCTCAGTTCA
**Q.** Does B1 bind (Herves transposase [1])?
**A.** binds

B2: Herves-L bp 1-100 (dsDNA)
DNA 1: TAGAGTTGTGCCTCAAGAACCAGAACTGTACGATTCATTCAATTCATCCTAAAGAACGAATGACCTACGTTCATCTAATCAACGTTCATCGATTCTTTAT
DNA 2: ATAAAGAATCGATGAACGTTGATTAGATGAACGTAGGTCATTCGTTCTTTAGGATGAATTGAATGAATCGTACAGTTCTGGTTCTTGAGGCACAACTCTA
**Q.** Does B2 bind (Herves transposase [2])?
**A.** binds

B3: (CGATTCAT)4 (dsDNA)
DNA 1: CGATTCATCGATTCATCGATTCATCGATTCAT
DNA 2: ATGAATCGATGAATCGATGAATCGATGAATCG
**Q.** Does B3 bind (Herves transposase [3])?
**A.** binds

B4: Herves-L bp 28-60 (dsDNA)
DNA 1: GTACGATTCATTCAATTCATCCTAAAGAACGAA
DNA 2: TTCGTTCTTTAGGATGAATTGAATGAATCGTAC
**Q.** Does B4 bind (Herves transposase [4])?
**A.** binds

B5: Herves-R bp 1-30 (dsDNA)
DNA 1: TAGGGTTGGGCAATTCGATTCATTACCATG
DNA 2: CATGGTAATGAATCGAATTGCCCAACCCTA
**Q.** Does B5 bind (Herves transposase [3])?
**A.** binds

B6: Herves-L bp 12-48 (dsDNA)
DNA 1: CTCAAGAACCAGAACTGTACGATTCATTCAATTCATC
DNA 2: GATGAATTGAATGAATCGTACAGTTCTGGTTCTTGAG
**Q.** Does B6 bind (Herves transposase [3])?
**A.** binds

B7: Herves-R bp 1-100 (dsDNA)
DNA 1: TTGACGTGAACGATTGAATCGCGATTCACGCTCAGTTCATGTTAATGAAAGAACCGGTAAATTCACGTTCATGGTAATGAATCGAATTGCCCAACCCTA
DNA 2: TAGGGTTGGGCAATTCGATTCATTACCATGAACGTGAATTTACCGGTTCTTTCATTAACATGAACTGAGCGTGAATCGCGATTCAATCGTTCACGTCAA
**Q.** Does B7 bind (Herves transposase [5])?
**A.** binds

B8: Herves-L bp 1-30 (dsDNA)
DNA 1: TAGAGTTGTGCCTCAAGAACCAGAACTGTA
DNA 2: TACAGTTCTGGTTCTTGAGGCACAACTCTA
**Q.** Does B8 bind (Herves transposase [6])?
**A.** no binding

B9: Herves-R bp 15-45 (dsDNA)
DNA 1: TCGATTCATTACCATGAACGTGAATTTACCG
DNA 2: CGGTAAATTCACGTTCATGGTAATGAATCGA
**Q.** Does B9 bind (Herves transposase [1])?
**A.** binds

B10: Herves-R bp 46-75 (dsDNA)
DNA 1: GTTCTTTCATTAACATGAACTGAGCGTGAA
DNA 2: TTCACGCTCAGTTCATGTTAATGAAAGAAC
**Q.** Does B10 bind (Herves transposase [7])?
**A.** no binding
